Experimental data published in the Human Domainome abundance scans (Beltran et al. 2025).

B1: Zinc finger homeobox protein 4, residues 2562 to 2617; numbered along this chain, Q86UP3 (parent)
chain: RLRTTITPEQLEILYEKYLLDSNPTRKMLDHIAREVGLKKRVVQVWFQNTRARERK

Variants of: B1
Assay: abundance fitness (aPCA) (normalised: wild type 0, dead -1); higher = more abundant; growth selection in yeast, the domain comes from the species named
Settings: Homo sapiens

Abundance fitness: each site, then its substitutions
M28: Y -0.406; C -0.067; R -0.297; K -0.582; I -0.101; S -0.152; E -0.003; V -0.119; T -0.003; W -0.577; G -0.108; N -0.409; H -0.305; P -1.06; F -0.591; Q -0.067; D 0.242; L -0.102
H31: I 0.205; T 0.206; N -0.335; Q 0.176; W -0.119; G -0.004; R -0.129; F -0.266; M -0.169; L -0.112; Y -0.201; D 0.05; K 0.146; C 0.052; A 0.042; E 0.426; S 0.233
E35: I -0.163; M -0.279; F -0.564; G -0.258; T -0.254; S -0.158; C -0.393; L -0.25; V -0.306; Y -0.493; D -0.278; W -0.597; R -0.654; H -0.302; Q -0.283; N -0.358; A -0.235
A33: H -0.86; W -0.696; L -0.732; D -0.526; R -0.541; S -0.158; G -0.344; Q -0.669; C -0.003; T -0.331; P -0.563; E -0.352
G37: C -0.006; A -0.258
K27: Y -0.142; C -0.096; Q 0.082; G 0.074; V 0.099; E 0.147; P 0.128; H 0.083; L -0.019; D 0.478; M -0.206; S 0.074; F -0.265; T -0.147; N -0.112; W -0.302; I -0.245; R -0.475
D30: C -0.431; W -0.173; Q -0.102; E -0.088; I -0.056; R -0.144; M -0.352; Y 0.003; H -0.269; F -0.372; L -0.296; G -0.052; P -0.579; T 0.002; V -0.292; A -0.108; S -0.062
L29: I -0.033; Q -0.124; M -0.429; W -0.004; P -0.752; D -0.721; V -0.024; S -0.498; H -0.95; T -0.228; R -0.346; Y -0.239; G -0.94; F -0.049; E 0.155; K -0.621
I32: S -1.27; K -0.796; F -0.377; E -0.998; G -0.945; T -0.405; Q -1.24; C -0.518; W -0.23; M -0.366; Y -0.208; L -0.15; A -0.786; R -1.08; V -0.204
V36: H -0.418; R -1.03; N -0.415; A -0.103; E -0.671; W -0.638; K -0.726; C -0.223; Y -0.586; F -0.623; S 0.019; D -0.27; L -0.121; I -0.398; G -0.812; P -0.649; M -0.134
R34: Q 0.107; G 0.123; H -0.162; W -0.139; F -0.101; E 0.244; T -0.02; K 0.004; A 0.195; D -0.536; C -0.223; M -0.053; Y 0.245; S 0.17; L -0.011; P -0.638; N 0.161; I -0.43
